Values of other authors, collected in article PMC4489423.
Like-named read-outs stand apart in the source and are kept apart here.

Columns and labels:
[1] = molecular target: IL-10R1 ECD (Homo sapiens) (UniProt Q13651); test: SPR
[2] = molecular target: IL-10R2 ECD (Homo sapiens) (UniProt Q08334); test: SPR
[3] = molecular target: IL-10R2 ECD (Homo sapiens) (UniProt Q08334)

IL-10, sequence (P22301 19-178): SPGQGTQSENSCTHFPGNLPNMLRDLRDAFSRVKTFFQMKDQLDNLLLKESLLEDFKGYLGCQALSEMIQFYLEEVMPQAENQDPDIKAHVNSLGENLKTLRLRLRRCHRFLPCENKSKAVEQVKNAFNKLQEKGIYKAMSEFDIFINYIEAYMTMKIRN
IL-10R2 ECD (Homo sapiens), sequence (Q08334 20-220): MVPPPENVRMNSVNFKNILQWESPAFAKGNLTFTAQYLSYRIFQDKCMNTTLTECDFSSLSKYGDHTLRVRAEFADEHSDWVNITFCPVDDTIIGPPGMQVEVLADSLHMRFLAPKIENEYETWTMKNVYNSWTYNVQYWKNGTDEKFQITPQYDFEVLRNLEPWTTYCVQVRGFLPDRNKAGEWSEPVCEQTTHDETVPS
IL-10R1 ECD (Homo sapiens), sequence (Q13651 22-235): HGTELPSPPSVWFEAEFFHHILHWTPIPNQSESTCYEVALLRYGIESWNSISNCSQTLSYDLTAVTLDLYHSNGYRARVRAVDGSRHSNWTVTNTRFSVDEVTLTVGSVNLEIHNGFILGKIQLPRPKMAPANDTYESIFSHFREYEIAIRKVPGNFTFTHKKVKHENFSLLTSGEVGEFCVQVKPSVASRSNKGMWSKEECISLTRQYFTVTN
IL-10/IL-10R1 complex, sequence (P22301 19-178): as the sequence (P22301 19-178) above
IL-10/IL-10R1 complex, sequence (Q13651 22-235, further chain): as the sequence (Q13651 22-235) above

Kd [1] [µM] | Kd [2] [µM] | Kd [3] [µM] | Substance
0.00024 | 3000 | – | IL-10 (from UniProt P22301)
– | – | 234 | IL-10/IL-10R1 complex (from UniProt P22301)
